# Source: US20260001928A1 (CORTERIA PHARMACEUTICALS, priority 2022, published 2026)
# *1 amine or outer side, *2 acyl side, *3 side chain or, on linkers, in order; H or OH if unused. Where no end group is shown, it is not given here. Side-chain parts run from the residue outwards. [ ]: non-standard residue; d: D form. The star is where a group is joined. γGlu = O=C(O)[C@H](CCC(=O)[*:2])N[*:1]; C14 diacid = O=C(O)CCCCCCCCCCCCC(=O)*; NMeI = CC[C@H](C)[C@H](NC)C(=O)O; Pentanoyl = CCCCC(=O)*; AEEA = NCCOCCOCC(=O)O; Aib = CC(C)(N)C(=O)O
# T1: CRF1R receptor (UniProt P34998 24-415, limits assumed)
# T1 sequence (looked up): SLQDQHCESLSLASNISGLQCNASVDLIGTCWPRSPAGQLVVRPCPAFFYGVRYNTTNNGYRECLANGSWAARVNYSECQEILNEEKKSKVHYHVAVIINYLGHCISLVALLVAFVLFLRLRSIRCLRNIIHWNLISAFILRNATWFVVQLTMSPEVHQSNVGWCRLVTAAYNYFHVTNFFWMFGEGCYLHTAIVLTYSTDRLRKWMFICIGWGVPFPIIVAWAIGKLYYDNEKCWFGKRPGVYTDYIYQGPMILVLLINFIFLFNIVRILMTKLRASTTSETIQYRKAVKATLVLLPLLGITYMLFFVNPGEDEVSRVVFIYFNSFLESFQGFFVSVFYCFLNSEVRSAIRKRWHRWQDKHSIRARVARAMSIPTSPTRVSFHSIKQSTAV
# Assays:
# CRF1R receptor = biological target: T1, CRF1R receptor; experiment: cell-based or functional assay
# [1] = biological target: human corticotropin-releasing factor 2a (CRF2a receptor) (human), Q13324; experiment: cell-based or functional assay
# human corticotropin-releasing factor 2a (CRF2a receptor) (human), Q13324, sequence (Q13324 20-411): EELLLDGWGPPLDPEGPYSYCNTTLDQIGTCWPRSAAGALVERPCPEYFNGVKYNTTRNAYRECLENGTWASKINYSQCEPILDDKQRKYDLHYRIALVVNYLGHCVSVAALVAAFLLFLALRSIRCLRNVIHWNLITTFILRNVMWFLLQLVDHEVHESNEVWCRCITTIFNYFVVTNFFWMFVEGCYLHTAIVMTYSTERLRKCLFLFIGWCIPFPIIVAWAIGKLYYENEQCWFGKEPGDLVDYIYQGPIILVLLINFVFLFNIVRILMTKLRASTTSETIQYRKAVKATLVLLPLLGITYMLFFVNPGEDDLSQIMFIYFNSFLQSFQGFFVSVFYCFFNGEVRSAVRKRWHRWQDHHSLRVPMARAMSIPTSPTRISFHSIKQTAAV
Binder,Emax (% I) (CRF1R receptor) [%],EC50 [nM] (cAMP) [1]
[NMeI]VLSLD[dV]PIKLK([AEEA-AEEA-γGlu-C14 diacid])KILLEQEKQKKQREQAETN[Aib]QILAQV-NH2 (N-terminus assumed; SMILES CC[C@H](C)[C@H](NC)C(=O)N[C@H](C(=O)N[C@@H](CC(C)C)C(=O)N[C@@H](CO)C(=O)N[C@@H](CC(C)C)C(=O)N[C@@H](CC(=O)O)C(=O)N[C@@H](C(=O)N1CCC[C@H]1C(=O)N[C@H](C(=O)N[C@@H](CCCCN)C(=O)N[C@@H](CC(C)C)C(=O)N[C@@H](CCCCNC(=O)COCCOCCNC(=O)COCCOCCNC(=O)CC[C@H](NC(=O)CCCCCCCCCCCCC(=O)O)C(=O)O)C(=O)N[C@@H](CCCCN)C(=O)N[C@H](C(=O)N[C@@H](CC(C)C)C(=O)N[C@@H](CC(C)C)C(=O)N[C@@H](CCC(=O)O)C(=O)N[C@@H](CCC(N)=O)C(=O)N[C@@H](CCC(=O)O)C(=O)N[C@@H](CCCCN)C(=O)N[C@@H](CCC(N)=O)C(=O)N[C@@H](CCCCN)C(=O)N[C@@H](CCCCN)C(=O)N[C@@H](CCC(N)=O)C(=O)N[C@@H](CCCNC(=N)N)C(=O)N[C@@H](CCC(=O)O)C(=O)N[C@@H](CCC(N)=O)C(=O)N[C@@H](C)C(=O)N[C@@H](CCC(=O)O)C(=O)N[C@H](C(=O)N[C@@H](CC(N)=O)C(=O)NC(C)(C)C(=O)N[C@@H](CCC(N)=O)C(=O)N[C@H](C(=O)N[C@@H](CC(C)C)C(=O)N[C@@H](C)C(=O)N[C@@H](CCC(N)=O)C(=O)N[C@H](C(N)=O)C(C)C)[C@@H](C)CC)[C@@H](C)O)[C@@H](C)CC)[C@@H](C)CC)C(C)C)C(C)C) [SEQ ID NO 178],1,6.5
[NMeI]VLSLD[dV]PIKLK([γGlu-C14 diacid])KILLEQEKQKAQREQAETN[Aib]QILAQV-NH2 (N-terminus assumed; SMILES CC[C@H](C)[C@H](NC)C(=O)N[C@H](C(=O)N[C@@H](CC(C)C)C(=O)N[C@@H](CO)C(=O)N[C@@H](CC(C)C)C(=O)N[C@@H](CC(=O)O)C(=O)N[C@@H](C(=O)N1CCC[C@H]1C(=O)N[C@H](C(=O)N[C@@H](CCCCN)C(=O)N[C@@H](CC(C)C)C(=O)N[C@@H](CCCCNC(=O)CC[C@H](NC(=O)CCCCCCCCCCCCC(=O)O)C(=O)O)C(=O)N[C@@H](CCCCN)C(=O)N[C@H](C(=O)N[C@@H](CC(C)C)C(=O)N[C@@H](CC(C)C)C(=O)N[C@@H](CCC(=O)O)C(=O)N[C@@H](CCC(N)=O)C(=O)N[C@@H](CCC(=O)O)C(=O)N[C@@H](CCCCN)C(=O)N[C@@H](CCC(N)=O)C(=O)N[C@@H](CCCCN)C(=O)N[C@@H](C)C(=O)N[C@@H](CCC(N)=O)C(=O)N[C@@H](CCCNC(=N)N)C(=O)N[C@@H](CCC(=O)O)C(=O)N[C@@H](CCC(N)=O)C(=O)N[C@@H](C)C(=O)N[C@@H](CCC(=O)O)C(=O)N[C@H](C(=O)N[C@@H](CC(N)=O)C(=O)NC(C)(C)C(=O)N[C@@H](CCC(N)=O)C(=O)N[C@H](C(=O)N[C@@H](CC(C)C)C(=O)N[C@@H](C)C(=O)N[C@@H](CCC(N)=O)C(=O)N[C@H](C(N)=O)C(C)C)[C@@H](C)CC)[C@@H](C)O)[C@@H](C)CC)[C@@H](C)CC)C(C)C)C(C)C) [SEQ ID NO 176],8,0.99
[NMeI]VLSLD[dV]PIKLK([AEEA-AEEA-γGlu-γGlu-C14 diacid])KILLEQEKQKKQREQAETN[Aib]QILAQV-NH2 (N-terminus assumed; SMILES CC[C@H](C)[C@H](NC)C(=O)N[C@H](C(=O)N[C@@H](CC(C)C)C(=O)N[C@@H](CO)C(=O)N[C@@H](CC(C)C)C(=O)N[C@@H](CC(=O)O)C(=O)N[C@@H](C(=O)N1CCC[C@H]1C(=O)N[C@H](C(=O)N[C@@H](CCCCN)C(=O)N[C@@H](CC(C)C)C(=O)N[C@@H](CCCCNC(=O)COCCOCCNC(=O)COCCOCCNC(=O)CC[C@H](NC(=O)CC[C@H](NC(=O)CCCCCCCCCCCCC(=O)O)C(=O)O)C(=O)O)C(=O)N[C@@H](CCCCN)C(=O)N[C@H](C(=O)N[C@@H](CC(C)C)C(=O)N[C@@H](CC(C)C)C(=O)N[C@@H](CCC(=O)O)C(=O)N[C@@H](CCC(N)=O)C(=O)N[C@@H](CCC(=O)O)C(=O)N[C@@H](CCCCN)C(=O)N[C@@H](CCC(N)=O)C(=O)N[C@@H](CCCCN)C(=O)N[C@@H](CCCCN)C(=O)N[C@@H](CCC(N)=O)C(=O)N[C@@H](CCCNC(=N)N)C(=O)N[C@@H](CCC(=O)O)C(=O)N[C@@H](CCC(N)=O)C(=O)N[C@@H](C)C(=O)N[C@@H](CCC(=O)O)C(=O)N[C@H](C(=O)N[C@@H](CC(N)=O)C(=O)NC(C)(C)C(=O)N[C@@H](CCC(N)=O)C(=O)N[C@H](C(=O)N[C@@H](CC(C)C)C(=O)N[C@@H](C)C(=O)N[C@@H](CCC(N)=O)C(=O)N[C@H](C(N)=O)C(C)C)[C@@H](C)CC)[C@@H](C)O)[C@@H](C)CC)[C@@H](C)CC)C(C)C)C(C)C) [SEQ ID NO 179],-4,15.6

# Other lines, results leading:
Emax (% I) (CRF1R receptor) [%],EC50 [nM] (cAMP) [1],Binder
2,10.7,Pentanoyl-VLSLD[dV]PIKLK([AEEA-AEEA-γGlu-C14 diacid])KILLEQEKQKKQREQAETN[Aib]QILAQV-NH2 (SMILES CCCCC(=O)N[C@H](C(=O)N[C@@H](CC(C)C)C(=O)N[C@@H](CO)C(=O)N[C@@H](CC(C)C)C(=O)N[C@@H](CC(=O)O)C(=O)N[C@@H](C(=O)N1CCC[C@H]1C(=O)N[C@H](C(=O)N[C@@H](CCCCN)C(=O)N[C@@H](CC(C)C)C(=O)N[C@@H](CCCCNC(=O)COCCOCCNC(=O)COCCOCCNC(=O)CC[C@H](NC(=O)CCCCCCCCCCCCC(=O)O)C(=O)O)C(=O)N[C@@H](CCCCN)C(=O)N[C@H](C(=O)N[C@@H](CC(C)C)C(=O)N[C@@H](CC(C)C)C(=O)N[C@@H](CCC(=O)O)C(=O)N[C@@H](CCC(N)=O)C(=O)N[C@@H](CCC(=O)O)C(=O)N[C@@H](CCCCN)C(=O)N[C@@H](CCC(N)=O)C(=O)N[C@@H](CCCCN)C(=O)N[C@@H](CCCCN)C(=O)N[C@@H](CCC(N)=O)C(=O)N[C@@H](CCCNC(=N)N)C(=O)N[C@@H](CCC(=O)O)C(=O)N[C@@H](CCC(N)=O)C(=O)N[C@@H](C)C(=O)N[C@@H](CCC(=O)O)C(=O)N[C@H](C(=O)N[C@@H](CC(N)=O)C(=O)NC(C)(C)C(=O)N[C@@H](CCC(N)=O)C(=O)N[C@H](C(=O)N[C@@H](CC(C)C)C(=O)N[C@@H](C)C(=O)N[C@@H](CCC(N)=O)C(=O)N[C@H](C(N)=O)C(C)C)[C@@H](C)CC)[C@@H](C)O)[C@@H](C)CC)[C@@H](C)CC)C(C)C)C(C)C) [SEQ ID NO 180]
9,24.7,Pentanoyl-VLSLD[dV]PIKLK([AEEA-AEEA-γGlu-γGlu-C14 diacid])KILLEQEKQKKQREQAETN[Aib]QILAQV-NH2 (SMILES CCCCC(=O)N[C@H](C(=O)N[C@@H](CC(C)C)C(=O)N[C@@H](CO)C(=O)N[C@@H](CC(C)C)C(=O)N[C@@H](CC(=O)O)C(=O)N[C@@H](C(=O)N1CCC[C@H]1C(=O)N[C@H](C(=O)N[C@@H](CCCCN)C(=O)N[C@@H](CC(C)C)C(=O)N[C@@H](CCCCNC(=O)COCCOCCNC(=O)COCCOCCNC(=O)CC[C@H](NC(=O)CC[C@H](NC(=O)CCCCCCCCCCCCC(=O)O)C(=O)O)C(=O)O)C(=O)N[C@@H](CCCCN)C(=O)N[C@H](C(=O)N[C@@H](CC(C)C)C(=O)N[C@@H](CC(C)C)C(=O)N[C@@H](CCC(=O)O)C(=O)N[C@@H](CCC(N)=O)C(=O)N[C@@H](CCC(=O)O)C(=O)N[C@@H](CCCCN)C(=O)N[C@@H](CCC(N)=O)C(=O)N[C@@H](CCCCN)C(=O)N[C@@H](CCCCN)C(=O)N[C@@H](CCC(N)=O)C(=O)N[C@@H](CCCNC(=N)N)C(=O)N[C@@H](CCC(=O)O)C(=O)N[C@@H](CCC(N)=O)C(=O)N[C@@H](C)C(=O)N[C@@H](CCC(=O)O)C(=O)N[C@H](C(=O)N[C@@H](CC(N)=O)C(=O)NC(C)(C)C(=O)N[C@@H](CCC(N)=O)C(=O)N[C@H](C(=O)N[C@@H](CC(C)C)C(=O)N[C@@H](C)C(=O)N[C@@H](CCC(N)=O)C(=O)N[C@H](C(N)=O)C(C)C)[C@@H](C)CC)[C@@H](C)O)[C@@H](C)CC)[C@@H](C)CC)C(C)C)C(C)C) [SEQ ID NO 181]
10,0.86,[NMeI]VLSLD[dV]PIKLK([γGlu-C14 diacid])KILLEQEKQK[Aib]QREQAETN[Aib]QILAQV-NH2 (N-terminus assumed; SMILES CC[C@H](C)[C@H](NC)C(=O)N[C@H](C(=O)N[C@@H](CC(C)C)C(=O)N[C@@H](CO)C(=O)N[C@@H](CC(C)C)C(=O)N[C@@H](CC(=O)O)C(=O)N[C@@H](C(=O)N1CCC[C@H]1C(=O)N[C@H](C(=O)N[C@@H](CCCCN)C(=O)N[C@@H](CC(C)C)C(=O)N[C@@H](CCCCNC(=O)CC[C@H](NC(=O)CCCCCCCCCCCCC(=O)O)C(=O)O)C(=O)N[C@@H](CCCCN)C(=O)N[C@H](C(=O)N[C@@H](CC(C)C)C(=O)N[C@@H](CC(C)C)C(=O)N[C@@H](CCC(=O)O)C(=O)N[C@@H](CCC(N)=O)C(=O)N[C@@H](CCC(=O)O)C(=O)N[C@@H](CCCCN)C(=O)N[C@@H](CCC(N)=O)C(=O)N[C@@H](CCCCN)C(=O)NC(C)(C)C(=O)N[C@@H](CCC(N)=O)C(=O)N[C@@H](CCCNC(=N)N)C(=O)N[C@@H](CCC(=O)O)C(=O)N[C@@H](CCC(N)=O)C(=O)N[C@@H](C)C(=O)N[C@@H](CCC(=O)O)C(=O)N[C@H](C(=O)N[C@@H](CC(N)=O)C(=O)NC(C)(C)C(=O)N[C@@H](CCC(N)=O)C(=O)N[C@H](C(=O)N[C@@H](CC(C)C)C(=O)N[C@@H](C)C(=O)N[C@@H](CCC(N)=O)C(=O)N[C@H](C(N)=O)C(C)C)[C@@H](C)CC)[C@@H](C)O)[C@@H](C)CC)[C@@H](C)CC)C(C)C)C(C)C) [SEQ ID NO 177]
